By Kd is commonly meant the free concentration of one partner at which half of the binding sites on the other are occupied at equilibrium, for simple one-to-one binding.

From patent publication US20110165145A1, “IGF-II/IGF-IIE BINDING PROTEINS” (priority 2008, published 2011) come the findings set out here.

Assay [1] concerns the target T1, IGF-II (Homo sapiens, UniProt P01344).
T1 construct: IGF-II (amino acids 1-67)
Put plainly: IGF-II stimulated Ba/F3 cell proliferation, sFabs (MTS assay). It is filed as cell-based. To be noted: 72 h. The procedure:
(§1) Ba/F3 cells were cultured in complete medium (90% RPMI 1640+10% FBS+10 ng/ml IL-3+2 mM L-Alanyl-Glutamine+1×Pen/Strep). Cells at passage 6 to 15 were used for the high throughput cell proliferation assay. IGF-II (67aa), IGF-IIE (104aa) were at 10 μg/ml in PBS, kept at −70° C. IL-4 was purchased from R&D system, Cat#: 404-ML, and anti-IGF-II antibody was purchased from R&D system, Cat#: MAB292. 34 sFabs from batch 1 and batch 2 in a median scale purification, all in PBS, were screened.
(§2) IGF-II was prepared at concentration of 400 ng/ml; IGF-IIE at 800 ng/ml; sFab at 200 μg/ml in PBS. 25 μl of IGF-II or IGF-IIE was preincubated with 25 μl of sFab in 96-well plate, triplicate for each sFab, 30 min at room temperature in a total volume of 50 μl/well. […]
(§3) The MTS assay was performed as follows: • Add 20 μl of CellTiter 96 Aqueous One Solution Reagent to each well • Incubate at 37° C., 5% CO2 for additional 4 h. • Read plate for absorbance at a microplate spectrophotometer at wavelength 490 nm. […]
(§4) MTS Assay: • Add 20 μl of CellTiter 96 Aqueous One Solution Reagent to each well • Incubate at 37° C., 5% CO2 for additional 4 h. • Read plate for absorbance at a microplate spectrophotometer at wavelength 490 nm.
On the technique in general: Tetrazolium dyes change colour on reduction, which living cells bring about.

Assay [2] concerns the target T2, IGF-IIE (Homo sapiens, UniProt P01344).
T2 construct: the construct comprising amino acids 1-104, which encompass the E domain
Put plainly: IGF-IIE stimulated Ba/F3 cell proliferation, sFabs (MTS assay). In kind it is cell-based. As to conditions: 72 h. The procedure:
as §1, §2, §3, §4

Assay [3] addresses T2, IGF-IIE. Put plainly: Affinity measurements of IgGs by SPR (BIACORE), IGF-IIE. In kind it is binding. As to conditions: IgG. Background: SPR reads the build-up and loss of mass on a sensor chip optically.

T2 sequence (P01344 25-128): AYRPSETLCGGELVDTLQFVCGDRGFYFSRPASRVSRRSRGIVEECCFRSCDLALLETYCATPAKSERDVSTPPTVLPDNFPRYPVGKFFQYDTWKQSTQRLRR
T1 sequence (P01344 25-91): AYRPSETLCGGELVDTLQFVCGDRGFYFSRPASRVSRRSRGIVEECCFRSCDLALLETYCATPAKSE

B1: M0068-E03: human anti-IGF-II/IGF-IIE Fab from phage display library (protein)
light: QDIQMTQSPSSLSASVGDRVTITCRASQSINTYLNWYQQKPGKAPKVLIHAASTLESGVPSRFSGSGSATEFTLTISSLQPEDFATFYCQQSYSVPFTFGPGTRLSSKRTVAAPSVFIFPPSDEQLKSGTASVVCLLNNFYPREAKVQWKVDNALQSGNSQESVTEQDSKDSTYSLSSTLTLSKADYEKHKVYACEVTHQGLSSPVTKSFNRGEC
heavy: EVQLLESGGGLVQPGGSLRLSCAASGFTFSEYVMAWVRQAPGKGLEWVSSIVSSGGYTKYADSVKGRFTISRDNSKNTLYLQMNSLRAEDTAVYYCAKDMTYSGDAFDVWGQGTMVTVSSASTKGPSVFPLAPSSKSTSGGTAALGCLVKDYFPEPVTVSWNSGALTSGVHTFPAVLQSSGLYSLSSVVTVPSSSLGTQTYICNVNHKPSNTKVDKKVEPKSCAAAHHHHHHGAAEQKLISEEDLNGAAEASSASNA
On to B1, for which, in assay [1] (sFab 50 μg/ml (1 μM), MTS), the “inhibitory effect on IGF-II stimulated Ba/F3 cell proliferation (screening)” value was “significant inhibitory effect”. Further, in assay [1] (sFab 50 μg/ml down to 0), the “inhibitory effect on IGF-II stimulated Ba/F3 cell proliferation (dose response, in words)” value is “significant inhibitory effect”. Further, in assay [2] (sFab 50 μg/ml (1 μM), MTS), the “inhibitory effect on IGF-IIE stimulated Ba/F3 cell proliferation (screening)” value was “significant inhibitory effect”. Besides, in assay [2] (sFab 50 μg/ml down to 0), the “inhibitory effect on IGF-IIE stimulated Ba/F3 cell proliferation (dose response, in words)” value was “significant inhibitory effect”.

B2: X0005-H01: germlined IgG counterpart of M0064-E04 in Table 6 (antibody, V domains shown)
VH: EVQLLESGGGLVQPGGSLRLSCAASGFTFSVYDMNWVRQAPGKGLEWVSSISSSGGGTLYADSVKGRFTISRDNSKNTLYLQMNSLRAEDTAVYYCARDSDTSSYYWYYDLWGRGTLVTVSS
VL: DIQMTQSPSSLSASVGDRVTITCQASHDISNYLNWYQQKPGKAPKLLIYAASRLQSGVPSRFSGSGSGTDFTLTISSLQPEDFATYYCQQSYSFPRTFGQGTRLEIK
With B2, the Kd in assay [3] amounted to 260 pM.
